In patent publication US20210388087A1 (Chugai, published 2021):
Changes are numbered by the printed parent chain. Names and notes keep the numbering of the source. Each block holds one binder with its values, some of them ahead of it.

Biological target: T1, Human CD3eg linker (human)
T1 construct: Single-chain construct; also called recombinant human CD3
T1 chain: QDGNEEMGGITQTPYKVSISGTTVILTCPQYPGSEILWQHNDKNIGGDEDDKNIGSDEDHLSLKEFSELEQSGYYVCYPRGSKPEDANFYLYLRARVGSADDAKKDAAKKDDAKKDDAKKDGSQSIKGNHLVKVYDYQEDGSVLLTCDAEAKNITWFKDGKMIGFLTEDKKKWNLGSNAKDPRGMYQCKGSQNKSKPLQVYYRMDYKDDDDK
Assay: SPR; fold vs parent H183/L072

fold change of affinity: 1.1 fold
B1: H183/L072 VL E27aK (antibody, name in Kabat numbering, V domains shown)
VH: QVQLVESGGGLVQPGRSLRLSCAASGFTFSNAWMHWVRQAPGKGLEWVAQIKDKGNAYAAYYAPSVKGRFTISRDDSKNSIYLQMNSLKTEDTAVYYCHYVHYASASTVLPAFGVDAWGQGTTVTVSS
VL: DIVMTQSPLSLPVTPGEPASISCQASQKLVHMNRNTYLHWYQQKPGQAPRLLIYKVSNRFPGVPDRFSGSGSGTDFTLKISRVEAEDVGVYYCAQGTSVPFTFGQGTKLEIK

fold change of affinity: 7.2 fold
B2: H183/L072 VL F55A (antibody, name in Kabat numbering, V domains shown)
VH: B1 VH
VL: B1 VL with K28E, F60A

fold change of affinity: 0 fold
B3: H183/L072 VL G91Q (antibody, name in Kabat numbering, V domains shown)
VH: B1 VH
VL: B1 VL with K28E, G96Q

fold change of affinity: 0 fold
B4: H183/L072 VL F96S (antibody, name in Kabat numbering, V domains shown)
VH: B1 VH
VL: B1 VL with K28E, F101S

fold change of affinity: 1.2 fold
B5: H183/L072 VL E27aQ (antibody, name in Kabat numbering, V domains shown)
VH: B1 VH
VL: B1 VL with K28Q

fold change of affinity: 0 fold
B6: H183/L072 VL G91K (antibody, name in Kabat numbering, V domains shown)
VH: B1 VH
VL: B1 VL with K28E, G96K

fold change of affinity: 2.9 fold
B7: H183/L072 VL F55L (antibody, name in Kabat numbering, V domains shown)
VH: B1 VH
VL: B1 VL with K28E, F60L

fold change of affinity: 1.1 fold
B8: H183/L072 VL E27aW (antibody, name in Kabat numbering, V domains shown)
VH: B1 VH
VL: B1 VL with K28W

fold change of affinity: 0 fold
B9: H183/L072 VL F96D (antibody, name in Kabat numbering, V domains shown)
VH: B1 VH
VL: B1 VL with K28E, F101D

fold change of affinity: 1.2 fold
B10: H183/L072 VL E27aR (antibody, name in Kabat numbering, V domains shown)
VH: B1 VH
VL: B1 VL with K28R

fold change of affinity: 1.2 fold
B11: H183/L072 VL E27aM (antibody, name in Kabat numbering, V domains shown)
VH: B1 VH
VL: B1 VL with K28M

fold change of affinity: 0 fold
B12: H183/L072 VL F96H (antibody, name in Kabat numbering, V domains shown)
VH: B1 VH
VL: B1 VL with K28E, F101H

fold change of affinity: 0 fold
B13: H183/L072 VL G91T (antibody, name in Kabat numbering, V domains shown)
VH: B1 VH
VL: B1 VL with K28E, G96T

fold change of affinity: 0 fold
B14: H183/L072 VL F96T (antibody, name in Kabat numbering, V domains shown)
VH: B1 VH
VL: B1 VL with K28E, F101T

fold change of affinity: 0 fold
B15: H183/L072 VL G91S (antibody, name in Kabat numbering, V domains shown)
VH: B1 VH
VL: B1 VL with K28E, G96S

fold change of affinity: 1.3 fold
B16: H183/L072 VL E27aS (antibody, name in Kabat numbering, V domains shown)
VH: B1 VH
VL: B1 VL with K28S

fold change of affinity: 1.3 fold
B17: H183/L072 VL E27aT (antibody, name in Kabat numbering, V domains shown)
VH: B1 VH
VL: B1 VL with K28T

fold change of affinity: 8.1 fold
B18: H183/L072 VL F55G (antibody, name in Kabat numbering, V domains shown)
VH: B1 VH
VL: B1 VL with K28E, F60G

fold change of affinity: 7.4 fold
B19: H183/L072 VL F55H (antibody, name in Kabat numbering, V domains shown)
VH: B1 VH
VL: B1 VL with K28E, F60H

fold change of affinity: 3.6 fold
B20: H183/L072 VL F55M (antibody, name in Kabat numbering, V domains shown)
VH: B1 VH
VL: B1 VL with K28E, F60M

fold change of affinity: 0 fold
B21: H183/L072 VL F96Q (antibody, name in Kabat numbering, V domains shown)
VH: B1 VH
VL: B1 VL with K28E, F101Q

fold change of affinity: 1.2 fold
B22: H183/L072 VL E27aL (antibody, name in Kabat numbering, V domains shown)
VH: B1 VH
VL: B1 VL with K28L

fold change of affinity: 0 fold
B23: H183/L072 VL G91D (antibody, name in Kabat numbering, V domains shown)
VH: B1 VH
VL: B1 VL with K28E, G96D

fold change of affinity: 0 fold
B24: H183/L072 VL G91E (antibody, name in Kabat numbering, V domains shown)
VH: B1 VH
VL: B1 VL with K28E, G96E

fold change of affinity: 1 fold
B25: H183/L072 VL E27aV (antibody, name in Kabat numbering, V domains shown)
VH: B1 VH
VL: B1 VL with K28V

fold change of affinity: 0 fold
B26: H183/L072 VL F96E (antibody, name in Kabat numbering, V domains shown)
VH: B1 VH
VL: B1 VL with K28E, F101E

fold change of affinity: 1.1 fold
B27: H183/L072 VL E27aN (antibody, name in Kabat numbering, V domains shown)
VH: B1 VH
VL: B1 VL with K28N

fold change of affinity: 2.9 fold
B28: H183/L072 VL F55Q (antibody, name in Kabat numbering, V domains shown)
VH: B1 VH
VL: B1 VL with K28E, F60Q

fold change of affinity: 8.3 fold
B29: H183/L072 VL F55K (antibody, name in Kabat numbering, V domains shown)
VH: B1 VH
VL: B1 VL with K28E, F60K

fold change of affinity: 1 fold
B30: H183/L072 VL E27aP (antibody, name in Kabat numbering, V domains shown)
VH: B1 VH
VL: B1 VL with K28P

fold change of affinity: 3.9 fold
B31: H183/L072 VL F55N (antibody, name in Kabat numbering, V domains shown)
VH: B1 VH
VL: B1 VL with K28E, F60N

fold change of affinity: 1.2 fold
B32: H183/L072 VL E27aY (antibody, name in Kabat numbering, V domains shown)
VH: B1 VH
VL: B1 VL with K28Y

fold change of affinity: 4.4 fold
B33: H183/L072 VL F55V (antibody, name in Kabat numbering, V domains shown)
VH: B1 VH
VL: B1 VL with K28E, F60V

fold change of affinity: 4.2 fold
B34: H183/L072 VL F55T (antibody, name in Kabat numbering, V domains shown)
VH: B1 VH
VL: B1 VL with K28E, F60T

fold change of affinity: 6.1 fold
B35: H183/L072 VL F55D (antibody, name in Kabat numbering, V domains shown)
VH: B1 VH
VL: B1 VL with K28E, F60D

fold change of affinity: 0 fold
B36: H183/L072 VL H27dE (antibody, name in Kabat numbering, V domains shown)
VH: B1 VH
VL: B1 VL with K28E, H31E

fold change of affinity: 0 fold
B37: H183/L072 VL G91H (antibody, name in Kabat numbering, V domains shown)
VH: B1 VH
VL: B1 VL with K28E, G96H

fold change of affinity: 3.4 fold
B38: H183/L072 VL F55I (antibody, name in Kabat numbering, V domains shown)
VH: B1 VH
VL: B1 VL with K28E, F60I

fold change of affinity: 4 fold
B39: H183/L072 VL F55R (antibody, name in Kabat numbering, V domains shown)
VH: B1 VH
VL: B1 VL with K28E, F60R

fold change of affinity: 0 fold
B40: H183/L072 VL H27dD (antibody, name in Kabat numbering, V domains shown)
VH: B1 VH
VL: B1 VL with K28E, H31D

fold change of affinity: 3.4 fold
B41: H183/L072 VL F55E (antibody, name in Kabat numbering, V domains shown)
VH: B1 VH
VL: B1 VL with K28E, F60E

fold change of affinity: 0.2 fold
B42: H183/L072 VL F55W (antibody, name in Kabat numbering, V domains shown)
VH: B1 VH
VL: B1 VL with K28E, F60W

fold change of affinity: 6.6 fold
B43: H183/L072 VL F55S (antibody, name in Kabat numbering, V domains shown)
VH: B1 VH
VL: B1 VL with K28E, F60S

fold change of affinity: 8.1 fold
B44: H183/L072 VL F55P (antibody, name in Kabat numbering, V domains shown)
VH: B1 VH
VL: B1 VL with K28E, F60P

fold change of affinity: 0 fold
B45: H183/L072 VL F96K (antibody, name in Kabat numbering, V domains shown)
VH: B1 VH
VL: B1 VL with K28E, F101K
